The text below walks through data of paper PMC10869273 (Nature Biotechnology, 2023).

The assay has as its target SARS-CoV-2 Omicron BA.1 receptor-binding domain (RBD) (SARS-CoV-2 Omicron BA.1, strain, biotin on the AviTag (expressed in the presence of BirA)).

B1: REGN10987 VH R16G-V108D (antibody, V domains shown)
VH: QVQLVESGGGVVQPGGSLRLSCAASGFTFSNYAMYWVRQAPGKGLEWVAVISYDGSNKYYADSVKGRFTISRDNSKNTLYLQMNSLRTEDTAVYYCASGSDYGDYLLDYWGQGTLVTVSS
VL: QSALTQPASVSGSPGQSITISCTGTSSDVGGYNYVSWYQQHPGKAPKLMIYDVSKRPSGVSNRFSGSKSGNTASLTISGLQSEDEADYYCNSLTSISTWVFGGGTKLTVL
In the case of B1, the binding result was “binds”.
